Patent US12514920B1, “Respiratory syncytial virus mRNA vaccine, and preparation method therefor and use thereof” (Hangzhou Tianlong Pharmaceutical Co., Ltd., priority 2024, dated 2026)
Residue numbers refer to the chain shown, from its start.

B1: YK-RSV-055 (protein)
chain: QNITEEFYQSTCSAVSKGYLGALRTGWYTSVITIELSNIKENKCNGTDAKVKLIKQELDKYKNAVTDLQLLMQSTPATGSGSCIASGVAVSKVLHLEGEVNKIKSALLSTNKAVVSLSNGVSVLTFKVLDLKNYIDKQLLPILNKQSCSIPNIETVIEFQQKNNRLLEITREFSVNAGVTTPVSTYMLTNSELLSLINDMPITNDQKKLMSNNVQIVRQQSYSIMSICKEEVLAYVVQLPLYGVIDTPCWKLHTSPLCTTNTKEGSNICLTRTDRGWYCDNAGSVSFFPQAETCKVQSNRVFCDTMNSRTLPSEVNLCNVDIFNPKYDCKIMTSKTDVSSSVITSLGAIVSCYGKTKCTASNKNRGIIKTFSNGCDYVSNKGVDTVSVGNTLYYVNKQEGQSLYVKGEPIINFYDPLVFPSDEFDASISQVNEKINQSLAFIRKSDELLHNVNAGKSTTNIMITTIIIVIIVILLSLIAVGLLLY
B2: YK-RSV-057 (protein)
chain: B1 chain with I227C, C228I

What was measured:
[1] = system: RSV pre-F antibody (7E11); experiment: ELISA binding of RSV F antigen mutants, epitope V; conditions: for Binding amount to antibody/binding amount of PC-RSV-064 to antibody, Epitope V: antibody 7E11, relative to PC-RSV-064
Procedure: (§1) To investigate the binding of the RSV F antigen mutants to antibodies recognizing different epitopes, the binding amount was determined by an ELISA method in this example.
(§2) • 293T cells (purchased from ATCC cell bank); • Primary antibody: RSV pre-F antibody (3C12), epitope ([…] (Novoprotein, Cat. No.: DA101); • RSV pre-F antibody (7H11), epitope Quaternary (Novoprotein, Cat. No.: DA109); • RSV F antibody (11A9), epitope II (Novoprotein, Cat. No.: DA091); • RSV F antibody (4B9), epitope III (Novoprotein, Cat. No.: DA110); • RSV pre-F antibody (7E11), epitope V (Cat. No.: DA119); • Standard: RSV-pre-F trimer protein (Novoprotein, Cat. No.: DRA230); • Secondary antibody: peroxidase AffiniPure goat anti-human IgG (H+L) (Yeasen, Cat. No.: N/A); • Experimental group: mRNA vaccines after screening in Example 5;
(§3) Cell culture and transfection, and protein sample preparation: the experimental procedures were the same as in Example 3.
(§4) Detection of antigen expression by ELISA: the experimental procedures were the same as in Example 5.
(§5) In the present application, the binding of different mutant antigens to antibodies recognizing different epitopes was detected by ELISA, and the strength of the binding of the antigens to the antibodies was measured by the binding amount. (1) The RSV pre-F antibody (3C12) recognizing the epitope Φ binds only to the F protein in the pre-fusion conformation; (2) the RSV pre-F antibody (7H11) recognizes the epitope Quaternary (spanning both epitopes IV and V) and specifically binds to the F protein in the pre-fusion conformation; (3) the RSV F antibody (11A9) recognizing the epitope II can recognize both the pre-fusion and post-fusion conformations of the F protein; (4) the RSV F antibody […] recognizing the epitope III preferentially recognizes the pre-fusion conformation and has relatively weak binding activity for the post-fusion conformation; (5) the RSV pre-F antibody (7E11) recognizing the epitope V binds only to the F protein in the pre-fusion conformation.

[2] = system: RSV pre-F antibody (3C12); assay type: physicochemical; conditions: for stability under the stress tests (in words): all stress tests, binding to 3C12, ELISA; for Stress resistance parameter, Osmotic pressure (mM) 3000: high osmotic pressure 3000 mM; for Stress resistance parameter, Osmotic pressure (mM) 3000 / Stress resistance parameter, Osmotic pressure (mM) 10: room temperature; for Stress resistance parameter, Osmotic pressure (mM) 3000 / Stress resistance parameter, Osmotic pressure (mM) 10 / Stress resistance parameter, pH 3.5 / Stress resistance parameter, pH 10: 60 min; for Stress resistance parameter, Osmotic pressure (mM) 3000 / Stress resistance parameter, Temperature (° C.) 50 / Stress resistance parameter, Osmotic pressure (mM) 10 / Stress resistance parameter, pH 3.5 / Stress resistance parameter, pH 10 / Stress resistance parameter, Temperature (° C.) 4: ELISA binding to 3C12; for Stress resistance parameter, Temperature (° C.) 50: incubation at 50° C. for 60 min; for Stress resistance parameter, Osmotic pressure (mM) 10: low osmotic pressure 10 mM; for Stress resistance parameter, pH 3.5: pH 3.5, room temperature; for Stress resistance parameter, pH 10: pH 10, room temperature; for Stress resistance parameter, Temperature (° C.) 4: storage at 4° C. for one week
How it was run: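 RSV F mRNA-vaccine mutants stress-treated: 4° C. for one week, 50° C. for 60 min, low or high osmotic pressure at room temperature for 60 min, acid or base at room temperature for 60 min. Binding to 3C12 (epitope Φ) then measured by ELISA against pre-F trimer standard, HRP anti-human IgG, OD 450/630 nm.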

RSV F antibody (4B9) = experiment: ELISA binding of RSV F antigen mutants, epitope III; conditions: for Binding amount to antibody/binding amount of PC-RSV-064 to antibody, Epitope III: antibody 4B9, relative to PC-RSV-064
Procedure: as §1, §2, §3, §4, §5

Row | Molecule | ELISA binding amount, Epitope V, RSV F antibody (7E11) [1] [ng/mL] | Binding amount to antibody/binding amount of PC-RSV-064 to antibody, Epitope V [1] | stability under the stress tests (in words) [2] | Stress resistance parameter, Osmotic pressure (mM) 3000 [2] | Stress resistance parameter, Temperature (° C.) 50 [2] | Stress resistance parameter, Osmotic pressure (mM) 10 [2] | Stress resistance parameter, pH 3.5 [2] | Stress resistance parameter, pH 10 [2] | Stress resistance parameter, Temperature (° C.) 4 [2] | ELISA binding amount, Epitope III, RSV F antibody (4B9) (RSV F antibody (4B9)) [ng/mL] | Binding amount to antibody/binding amount of PC-RSV-064 to antibody, Epitope III (RSV F antibody (4B9))
1 | B1 | 91 | 0.28 | superior stability | 0.71 ± 0.23 | 0.78 ± 0.19 | 0.72 ± 0.20 | 0.69 ± 0.08 | 0.79 ± 0.26 | 0.48 ± 0.11 | 7298 | 2.54
2 | B2 | 129 | 0.40 | superior stability | 0.64 ± 0.15 | 0.64 ± 0.17 | 0.70 ± 0.07 | 0.56 ± 0.08 | 0.56 ± 0.09 | 0.61 ± 0.10 | 4779 | 1.67
